Measurements: article PMC6403000
Values belong to the substance of their own block, whether it stands above or below them.

Key:
Assay in all cases: SEC
[1] = molecular target: CtHsp104 lacking the NTD (residues 153-882) (Calcarisporiella thermophila)
[2] = molecular target: CtHsp104 lacking the NTD and the CTT (residues 153-864) (Calcarisporiella thermophila)
[3] = molecular target: CtHsp104 lacking the NTD with mutated Walker B motifs (E275Q:E679Q) (Calcarisporiella thermophila)
[4] = molecular target: CtHsp104 lacking the NTD with mutated arginine fingers (R328M/R757M) (Calcarisporiella thermophila)

- stoichiometry N [1]: 6
Substance: CtHsp104 lacking the NTD (residues 153-882) (domain or fragment)

- stoichiometry N [2]: 6
Substance: CtHsp104 lacking the NTD and the CTT (residues 153-864) (domain or fragment)

- stoichiometry N [3]: 6
Substance: CtHsp104 lacking the NTD with mutated Walker B motifs (E275Q:E679Q) (domain or fragment)

- stoichiometry N [4]: 6
Substance: CtHsp104 lacking the NTD with mutated arginine fingers (R328M/R757M) (domain or fragment)
